Source: patent US20020115140A1

Target: GPA1 protein (yeast) (UniProt P08539)
Assay: cell-based or functional assay

Chain of UniProt P08539 (P08539 2-472 limits assumed): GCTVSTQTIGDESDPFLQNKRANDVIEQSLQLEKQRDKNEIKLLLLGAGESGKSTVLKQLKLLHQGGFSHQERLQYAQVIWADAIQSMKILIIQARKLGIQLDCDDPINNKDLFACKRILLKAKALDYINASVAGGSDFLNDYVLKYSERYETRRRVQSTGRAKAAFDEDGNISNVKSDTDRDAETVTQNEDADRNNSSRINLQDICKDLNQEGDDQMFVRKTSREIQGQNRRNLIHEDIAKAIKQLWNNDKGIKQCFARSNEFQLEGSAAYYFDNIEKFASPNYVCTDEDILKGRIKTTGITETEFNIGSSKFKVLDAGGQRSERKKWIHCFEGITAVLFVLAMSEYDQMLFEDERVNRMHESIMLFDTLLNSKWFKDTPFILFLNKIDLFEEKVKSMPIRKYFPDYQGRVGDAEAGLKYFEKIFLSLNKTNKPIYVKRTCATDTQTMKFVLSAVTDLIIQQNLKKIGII

Substance: murine RATH1.1 gene product (from UniProt P97428 1-201)
- diameter of growth inhibition zone; strain MY169 (sst2-, RATH1.1 under ADH2 promoter); 1 µg alpha factor: 0.8 cm
- diameter of growth inhibition zone; strain MY169 (sst2-, RATH1.1 under ADH2 promoter); 10 µg alpha factor: 1.8 cm
- diameter of growth inhibition zone; strain MY173 (SST2+, RATH1.1 under ADH2 promoter); 10 µg alpha factor: 1.6 cm
